The supplement of paper PMC10567573

B1: COX4I1 (parent)
chain: VAHVKHLSASQKALKEKEKASWSS

Variants of: B1
Experiment: protein stability index of a GFP-peptide fusion (GPS, HEK-293T) (PSI 1-6); higher = more stable
Settings: c terminus: a fixed tail appended
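Also: lentivirally expressed fusions sorted by FACS into six bins by GFP to DsRed ratio, PSI derived from sequencing read proportions per bin multiplied by bin number.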

Variant	protein stability index
K15P	2.99
K15Q	3.5
K15T	3.48
K15H	3.85
K15A	3.78
K15N	3.77
K15F	3.21
K15L	3.29
K15V	3.2
K15G	3.18
K15C	3.21
K15E	4.08
K15M	3.94
K15S	4.04
K15R	3.33
K15Y	3
K15W	2.77
K15D	3.96
K15I	3.82
A13F	2.39
A13D	3.82
A13C	3.37
A13I	2.75
A13G	3.3

Variant	protein stability index
A13W	2.08
A13Q	2.63
A13P	3.8
A13R	2.69
A13V	3.09
A13T	3.27
A13Y	3.06
A13L	2.91
A13M	2.95
A13K	3.16
A13E	3.64
A13N	3.58
A13H	3.17
A13S	3.2
W22F	4.6
W22A	5.14
W22K	4.78
W22L	4.74
W22V	4.98
W22C	4.97
W22G	5.03
W22N	5.21
W22P	5.12
W22Q	4.79

Variant	protein stability index
W22I	4.38
W22S	5.08
W22H	4.48
W22Y	4.29
W22M	4.88
W22T	4.96
W22D	4.85
W22E	5.33
W22R	4.58
K17Y	3.06
K17S	3.23
K17Q	3.53
K17T	3.21
K17R	3.49
K17G	3.86
K17W	2.35
K17N	3.81
K17C	2.83
K17V	2.95
K17M	3.01
K17D	3.92
K17F	3.31
K17P	3.32
K17I	2.83

Variant	protein stability index
K17E	3.9
K17A	3.62
K17H	3.26
K17L	2.71
S10W	2.26
S10Y	2.28
S10T	2.56
S10H	3.05
S10P	3.39
S10R	3.16
S10A	2.88
S10E	3.95
S10F	2.83
S10D	4.01
S10N	3.98
S10Q	3.12
S10L	2.58
S10G	3.46
S10I	2.37
S10V	2.94
S10C	1.97
S10M	2.94
S10K	2.66
E16M	2.46

Variant	protein stability index
E16Q	2.72
E16N	3.05
E16D	3.48
E16S	2.64
E16R	2.8
E16W	2.31
E16K	3.17
E16A	3.67
E16P	2.75
E16V	2.03
E16L	2.36
E16T	2.93
E16G	2.38
E16F	2.21
E16I	2.54
E16H	3.56
E16C	2
E16Y	2.56
A20C	3.28
A20Q	2.57
A20K	3.48
A20R	3.65
A20N	3.05
A20Y	2.29

Variant	protein stability index
A20E	1.71
A20M	2.39
A20T	3.25
A20G	3.25
A20W	2
A20V	3.21
A20L	2.86
A20S	3.16
A20I	2.76
A20F	3.13
A20H	3.23
A20P	3.36
A20D	3.27
K19F	2.64
K19M	2.7
K19G	3.52
K19Q	3.02
K19S	3.52
K19H	2.89
K19A	3.86
K19R	3.71
K19I	3.21
K19C	2.79
K19N	3.4

Variant	protein stability index
K19L	2.48
K19P	3.63
K19T	3.17
K19W	3.46
K19Y	2.28
K19E	4.5
K19V	3.03
K19D	3.85
E18V	2.59
E18T	2.87
E18W	2.69
E18H	3.64
E18R	2.77
E18M	2.13
E18Y	2.67
E18A	2.92
E18K	2.92
E18S	3.02
E18C	3.38
E18L	2.69
E18I	3.15
E18P	2.52
E18N	2.98
E18D	3.15

Variant	protein stability index
E18F	2.51
E18Q	4.05
E18G	3.13
S21A	3.98
S21D	4.18
S21Y	3.32
S21W	3.24
S21T	3.32
S21G	3.6
S21R	3.49
S21E	4.42
S21K	3.47
S21I	3.68
S21C	3.74
S21L	3.16
S21P	3.73
S21Q	4.07
S21F	3.72
S21N	3.75
S21H	3.46
S21V	3.96
S21M	3.39
A9Q	3.01
A9F	3.55

Variant	protein stability index
A9D	3.87
A9C	2.42
A9K	3.07
A9N	3.43
A9I	3.35
A9S	3.59
A9M	3.03
A9R	3.7
A9P	3.19
A9W	2.47
A9G	2.38
A9T	2.93
A9L	3.23
A9E	4.11
A9Y	2.06
A9H	3.19
A9V	3.09
S8H	3.22
S8V	2.7
S8P	3.62
S8G	3.64
S8N	3.53
S8L	3.02
S8M	2.92

Variant	protein stability index
S8E	3.6
S8Y	2.55
S8T	3.1
S8F	2.2
S8A	3.57
S8K	3.46
S8I	3.1
S8D	3.86
S8Q	3.24
S8R	3.11
S8W	2.35
S8C	2.41
S23A	1.82
S23G	4.07
S23E	3.26
S23C	2.22
S23H	3.68
S23F	3.65
S23D	4.4
L14R	3.7
L14M	3.62
L14D	3.92
L14F	2.88
L14T	2.89

Variant	protein stability index
L14K	3.65
L14G	3.1
L14W	3.2
L14C	3.12
L14N	3.98
L14P	3.41
L14E	3.54
L14I	3.46
L14V	3.38
L14Q	3.48
L14S	3.05
L14H	3.61
L14Y	3.09
L14A	3.2
L7R	2.99
L7Q	3.36
L7E	4.3
L7H	3.72
L7M	3.4
L7I	3.79
L7S	3.6
L7K	3.43
L7A	2.27
L7W	2.84

Variant	protein stability index
L7P	3.91
L7T	3.54
L7Y	3.36
L7F	3.42
L7N	3.85
L7D	4.03
L7V	3.68
L7G	3.99
L7C	3.47
K12F	2.92
K12M	2.77
K12V	3.77
K12H	2.84
K12D	3.88
K12W	2.69
K12N	3.13
K12S	3.64
K12I	2.71
K12T	3.32
K12P	3.58
K12Q	3.86
K12G	2.65
K12C	2.33
K12A	2.61

Variant	protein stability index
K12E	3.52
K12Y	2.98
K12L	3.32
K12R	3.07
Q11H	3.26
Q11W	2.92
Q11R	2.83
Q11F	2.56
Q11L	2.96
Q11N	3.4
Q11K	2.99
Q11M	3.25
Q11C	3.21
Q11D	3.21
Q11I	2.94
Q11S	3.35
Q11P	3.6
Q11Y	2.08
Q11A	3.28
Q11V	2.65
Q11T	2.86
Q11E	3.65
Q11G	2.67
H6Q	4.45

Variant	protein stability index
H6N	3.38
H6P	3.98
H6V	2.96
H6D	3.81
H6C	3.21
H6F	2.78
H6Y	2.5
H6K	3.51
H6E	3.87
H6R	3.41
H6A	3.24
H6L	3.3
H6S	3.38
H6W	2.32
H6T	2.97
H6M	3.12
H6G	3.45
H6I	3.24
K5Y	2.55
K5T	3.66
K5V	3.1
K5W	2.65
